Measured values as given in US9081020B2, “Mutant proteins and methods for selecting them” (Heptares Therapeutics Limited, priority 2008, dated 2015).
Residue numbers refer to the chain shown, from its start. Numbers in names are those of the source.

B1: I383/21: Sequencing established that I383/21 is I383G (M1 mAChR) (protein, UniProt P11229 1-460, looked up, variant I383G)
Muscarinic acetylcholine …: MNTSAPPAVSPNITVLAPGKGPWQVAFIGITTGLLSLATVTGNLLVLISFKVNTELKTVNNYFLLSLACADLIIGTFSMNLYTTYLLMGHWALGTLACDLWLALDYVASNASVMNLLLISFDRYFSVTRPLSYRAKRTPRRAALMIGLAWLVSFVLWAPAILFWQYLVGERTVLAGQCYIQFLSQPIITFGTAMAAFYLPVTVMCTLYWRIYRETENRARELAALQGSETPGKGGGSSSSSERSQPGAEGSPETPPGRCCRCCRAPRLLQAYSWKEEEEEDEGSMESLTSSEGEEPGSEVVIKMPMVDPEAQAPTKQPPRSSPNTVKRPTKKGRDRAGKGQKPRGKEQLAKRKTFSLVKEKKAARTLSAILLAFILTWTPYNGMVLVSTFCKDCVPETLWELGYWLCYVNSTINPMCYALCNKAFRDTFRLLLLCRWDKRRWRKIPKRPGSVHRTPSRQC
B2: L65V: M1 mAChR mutant L65V selected from random mutagenesis screen (protein)
chain: B1 Muscarinic acetylcholine … with L65V, G383I
B3: L148A: M1 mAChR mutant L148A (protein)
chain: B1 Muscarinic acetylcholine … with L148A, G383I
B4: M384/27: Sequencing established that M384/27 is M384C (M1 mAChR) (protein, UniProt P11229 1-460, looked up, variant M384C)
Muscarinic acetylcholine …: B1 Muscarinic acetylcholine … with G383I, M384C
B5: M384/40: Sequencing established that M384/40 is M384G (M1 mAChR) (protein, UniProt P11229 1-460, looked up, variant M384G)
Muscarinic acetylcholine …: B1 Muscarinic acetylcholine … with G383I, M384G
B6: L65A/I73A: M1 mAChR double mutant, Ala mutation on L65A background (protein, UniProt P11229 1-460, looked up, variant L65A I73A)
Muscarinic acetylcholine …: B1 Muscarinic acetylcholine … with L65A, I73A, G383I
B7: L65A/L144A: M1 mAChR double mutant, Ala mutation on L65A background (protein, UniProt P11229 1-460, looked up, variant L65A L144A)
Muscarinic acetylcholine …: B1 Muscarinic acetylcholine … with L65A, L144A, G383I
B8: L65A/T202A: M1 mAChR double mutant, Ala mutation on L65A background (protein, UniProt P11229 1-460, looked up, variant L65A T202A)
Muscarinic acetylcholine …: B1 Muscarinic acetylcholine … with L65A, T202A, G383I
B9: L65A/I74A: M1 mAChR double mutant, Ala mutation on L65A background (protein, UniProt P11229 1-460, looked up, variant L65A I74A)
Muscarinic acetylcholine …: B1 Muscarinic acetylcholine … with L65A, I74A, G383I
B10: L65A/E397A: M1 mAChR double mutant, Ala mutation on L65A background (protein, UniProt P11229 1-460, looked up, variant L65A E397A)
Muscarinic acetylcholine …: B1 Muscarinic acetylcholine … with L65A, G383I, E397A
B11: L65A/V409A: M1 mAChR double mutant, Ala mutation on L65A background (protein, UniProt P11229 1-460, looked up, variant L65A V409A)
Muscarinic acetylcholine …: B1 Muscarinic acetylcholine … with L65A, G383I, V409A
B12: L65A/W101A: M1 mAChR double mutant, W101A on L65A background (protein, UniProt P11229 1-460, looked up, variant L65A W101A)
Muscarinic acetylcholine …: B1 Muscarinic acetylcholine … with L65A, W101A, G383I
B13: L65F: M1 mAChR mutant L65F, homologous to M4 mAChR (protein)
chain: B1 Muscarinic acetylcholine … with L65F, G383I
B14: L65A/Y82A: M1 mAChR double mutant, Ala mutation on L65A background (protein, UniProt P11229 1-460, looked up, variant L65A Y82A)
Muscarinic acetylcholine …: B1 Muscarinic acetylcholine … with L65A, Y82A, G383I
B15: I73L: M1 mAChR mutant, substitution of another aliphatic amino acid at Ile 73 (protein)
chain: B1 Muscarinic acetylcholine … with I73L, G383I

The molecules below were run on M1 mAChR (assay: not given). Details: 0.82% BOG, 3 h, 4° C., whole E. coli BL21 cells; single culture; listed as I383/21 1.
Format: physicochemical
Description: This concentration was determined by analysing wild-type M1 mAChRs expressed in the inner cell membranes of intact E. Coli strain BL21 cells. The cells were pre-labelled with the radiolabelled antagonist 3H—N-methyl scopolamine and resuspended to a pre-determined cell density (Absorbance at 600 nm=2.0) in a chosen buffer (in this case 50 mM sodium phosphate, 1 mM EDTA, pH 7.5). […] The wild-type M1 mAChRs were titrated by the addition of increasing concentrations of beta octyl glucoside dissolved in the same buffer for different times (e.g. 1 h, 2 h, 3 h, 5 h, 15 h) and at different temperatures (e.g. 4° C., 15° C.). The loss of specifically-bound radioligand was then measured after recovering the cells by centrifugation (15000×g, 15 min.). In the example, the centrifugation step was performed on duplicate 1 ml aliquots of the cells. The experiment was repeated 3 times. […] It will be appreciated that the cell density, detergent concentration and other parameters of the assay may be varied to adjust the loss of activity as appropriate.
(a) A state of in-situ destabilisation of a particular membrane protein in a particular cell membrane as a result of the addition of a particular concentration of a particular detergent, can be defined by the loss of the characteristic specific ligand binding activity of the membrane protein for a particular ligand of interest in the presence of a defined concentration of a particular detergent molecule or other solubilising agent.
A preferred version of the assay is destabilisation of a membrane protein-ligand complex in a detergent-enriched membrane. The membrane protein, either in a membrane preparation, or in intact cells in-vivo or ex-vivo, is pre-incubated with a labelled version of the ligand, the label, for instance, being a radioactive label, or a fluorescent label, and the binding step preferably being allowed to proceed to equilibrium, defined as the achievement of a time-invariant level of binding. To define membrane protein-independent, or non-specific, binding the binding step is performed with the addition of a second non-labelled ligand, called the competing ligand, having an appropriate membrane protein-specific pharmacology, at a concentration sufficient fully to occupy the binding sites of the membrane protein and thereby exclude the binding of the labelled ligand. The difference between the binding of the labelled ligand in the absence and presence of the competing ligand is defined as the specific binding of the labelled ligand. Measurement of binding requires a suitable method for separating and measuring bound ligand. Characteristically, this involves centrifugation of intact cells or membranes for a time and at a centrifugal force adequate to pellet them (for instance, 15000×g for 15 min in the case of E. coli cells, or 100,000×g for plasma membrane preparations), or filtration of a membrane suspension e.g. through a suitable filter paper such as glass fibre paper e.g. GF-B or GF-C followed by counting of radioactivity. Alternatively, it might involve the measurement of an optical signal such as enhancement of fluorescence emission in the case of fluorescent ligands.
To perform the in-situ destabilisation assay, a pre-determined concentration of the detergent or other destabilising agent of choice is mixed with a membrane or cell suspension containing the pre-labelled membrane protein in an appropriate buffer composition at a particular temperature and for a particular time, determined as described below.

| Molecule | % 3H-NMS retained BOG [%] |
| --- | --- |
| B1 | 70 |

Same assay, conditions: 0.82% BOG, 3 h, 4° C., whole E. coli BL21 cells; single culture; listed as I383/21 2

| Molecule | % 3H-NMS retained BOG [%] |
| --- | --- |
| B1 | 62 |

Same assay, conditions: 0.82% BOG, 3 h, 4° C., whole E. coli BL21 cells; single culture; listed as L65V 1

| Molecule | % 3H-NMS retained BOG [%] |
| --- | --- |
| B2 | 81 |

Same assay, conditions: 0.82% BOG, 3 h, 4° C., whole E. coli BL21 cells; single culture; listed as L65V 2

| Molecule | % 3H-NMS retained BOG [%] |
| --- | --- |
| B2 | 95 |

Same assay, conditions: 0.82% BOG, 3 h, 4° C., whole E. coli BL21 cells; single culture; listed as L148A 1

| Molecule | % 3H-NMS retained BOG [%] |
| --- | --- |
| B3 | 74 |

Same assay, conditions: 0.82% BOG, 3 h, 4° C., whole E. coli BL21 cells; single culture; listed as L148A 2

| Molecule | % 3H-NMS retained BOG [%] |
| --- | --- |
| B3 | 69 |

Same assay, conditions: 0.82% BOG, 3 h, 4° C., whole E. coli BL21 cells; single culture; listed as M384/27 1

| Molecule | % 3H-NMS retained BOG [%] |
| --- | --- |
| B4 | 63 |

Same assay, conditions: 0.82% BOG, 3 h, 4° C., whole E. coli BL21 cells; single culture; listed as M384/27 2

| Molecule | % 3H-NMS retained BOG [%] |
| --- | --- |
| B4 | 73 |

Same assay, conditions: 0.82% BOG, 3 h, 4° C., whole E. coli BL21 cells; single culture; listed as M384/40 1

| Molecule | % 3H-NMS retained BOG [%] |
| --- | --- |
| B5 | 71 |

Same assay, conditions: 0.82% BOG, 3 h, 4° C., whole E. coli BL21 cells; single culture; listed as M384/40 2

| Molecule | % 3H-NMS retained BOG [%] |
| --- | --- |
| B5 | 82 |

Same assay, conditions: 0.82% BOG, 3 h, 4° C.; % loss relative to wild-type control

| Molecule | % loss/wt |
| --- | --- |
| B2 | 0.23 |
| B4 | 0.6 |
| B3 | 0.54 |
| B5 | 0.44 |
| B1 | 0.64 |

Same assay, conditions: 0.82% BOG, 3 h, 4° C.; mean of the cultures

| Molecule | mean % retained [%] |
| --- | --- |
| B2 | 88 |
| B4 | 68 |
| B3 | 71.5 |
| B5 | 76.5 |
| B1 | 66 |

Same assay, conditions: 0.82% β-octyl glucoside, 3 h, 4° C.; % loss(control)/% loss(mutant); mean±SEM of 3

| Molecule | Stability (βOG in-situ) % L65A control [% L65A control] |
| --- | --- |
| B6 | 46 ± 2 |
| B7 | 125 ± 16 |
| B8 | 94 ± 1 |
| B2 | 115 |
| B9 | 51 ± 3 |
| B10 | 166 ± 16 |
| B11 | 34 ± 3 |
| B12 | 136 ± 9 |
| B13 | 74 ± 16 |
| B14 | 175 ± 61 |

Same assay, conditions: 0.82% β-octyl glucoside, L65A background

| Molecule | in-situ stability relative to L65A, in words |
| --- | --- |
| B6 | significantly reduced stability |
| B9 | significantly reduced stability |
| B10 | more stable |
| B11 | significantly reduced stability |
| B12 | more stable |
| B14 | enhanced stability in 2 out of 3 experiments |

Each molecule was assayed on M1 mAChR (assay: thermal stability (Tm) of partially purified [3H]NMS-labelled receptors in 0.1% dodecyl-β-maltoside). Details: 0.1% DDM, incubation time 30 min; mean±range/SEM.
Format: physicochemical, rat
Description: For measurements of thermal melting temperature (Tm), [3H]NMS-labelled receptors were partially purified by immobilized metal ion affinity chromatography from cultures grown from single clones expressed in E. Coli BL21 cells, essentially as described in Hulme and Curtis, 1998 (21). Tm measurements were carried out after gel-filtration of partially purified receptors into 50 mM sodium phosphate, 5 mM β-mercaptoethanol and 0.1% dodecyl-β-maltoside (DDM), using an incubation time of 30 min. Values were tabulated as mean±range/SEM of 2 or more independent measurements (Table 3).

| Molecule | Tm (0.1% DDM) [°C] |
| --- | --- |
| B6 | 27.0 ± 0.5 |
| B7 | 29.8 ± 1.0 |
| B8 | 31.1 ± 0.2 |
| B2 | 32.6 ± 0.4 |
| B9 | 28.8 ± 0.5 |
| B10 | 33.6 ± 0.2 |
| B11 | 26.8 |
| B12 | 31.0 ± 0.4 |
| B13 | 30.2 ± 0.5 |
| B14 | 25.3 ± 0.5 |

Same assay, conditions: 0.1% dodecyl maltoside

| Molecule | extra increment of stability (full thermal stability assay) [°C] |
| --- | --- |
| B15 | 0.9 |

Same assay, conditions: partially purified mutants, 0.1% DDM

| Molecule | thermal stability (Tm) relative to L65A, in words |
| --- | --- |
| B6 | reduced stability |
| B8 | marginal increase |
| B2 | more stable than L65A |
| B9 | no change |
| B10 | increased stability |
| B11 | reduced stability |
| B12 | increased stability |
| B14 | Reduced stability |
